The values below are quoted from earlier work in article PMC6504839.

Data set [1] deals with integrin αIIbβ3 (Homo sapiens) (UniProt P08514).
The target is the same in data set [2]. The source holds these as a separate data set.

Where two headings read alike, the source gives them in different places.

A word on the Kd: it is the constant that tells how readily two partners part at equilibrium. As to Disagregin (from UniProt P36235), the Kd in data set [1] is 40 nM.
Savignygrin (from UniProt Q8MVZ3): the dissociation constant Kd in data set [2] was 60 nM.
